# In the supplement of paper PMC5998384:
# Legend:
# HeLa Kyoto [1] = test: thermal stability score vs G1/S (z-score of summed log2 fold changes over temperatures); higher = more thermally stable than in G1/S
# HeLa Kyoto [2] = test: solubility change mitosis vs G1/S (difference of NP-40 vs SDS log2 ratios) (log2 ratio difference); higher = more soluble in mitosis
# HeLa Kyoto [3] = test: melting temperature (median over replicates), in situ; higher = more thermally stable
# HeLa Kyoto [4] = test: solubility in G1/S (NP-40 vs SDS abundance) (log2 ratio); higher = more soluble; settings: cell cycle stage: G1/S
# [5] = cell cycle stage: early G1 (4.5 h after nocodazole release)
# 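Throughout, for melting temperature (median over replicates), in situ: HeLa Kyoto cells synchronized by double thymidine or nocodazole block, proteins quantified by TMT10plex mass spectrometry, three independent biological replicates.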
# 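Throughout, for solubility change mitosis vs G1/S (difference of NP-40 vs SDS log2 ratios): synchronized HeLa Kyoto cells (double thymidine block for G1/S, nocodazole release for mitosis), protein amounts in NP-40 versus SDS lysates quantified by mass spectrometry, three biological replicates.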
# 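Throughout, for solubility in G1/S (NP-40 vs SDS abundance): HeLa Kyoto cells arrested at G1/S by double thymidine block, proteins quantified by TMT10plex mass spectrometry in mild NP-40 versus SDS extracts, three biological replicates.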
# 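Throughout, for thermal stability score vs G1/S (z-score of summed log2 fold changes over temperatures): synchronized HeLa Kyoto cells, proteins quantified by TMT10plex mass spectrometry, three biological replicates, mitosis taken 0.5 h after nocodazole release, G1/S directly after double thymidine block.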
Substance,thermal stability score (HeLa Kyoto [1]; [5]),thermal stability score (HeLa Kyoto [1]; cell cycle stage: mitosis),solubility change mitosis (log2) (HeLa Kyoto [2]),melting temperature (HeLa Kyoto [3]; cell cycle stage: G1/S),melting temperature (HeLa Kyoto [3]; cell cycle stage: mitosis),solubility in G1/S (log2) (HeLa Kyoto [4])
MAEPVGKRGRWSGGSGAGRGGRGGWGGRGRRPRAQRSPSRGTLDVVSVDLVTDSDEEILEVATARGAADEVEVEPPEPPGPVASRDNSNSDSEGEDRRPAGPPREPVRRRRRLVLDPGEAPLVPVYSGKVKSSLRLIPDDLSLLKLYPPGDEEEAELADSSGLYHEGSPSPGSPWKTKLRTKDKEEKKKTEFLDLDNSPLSPPSPRTKSRTHTRALKKLSEVNKRLQDLRSCLSPKPPQGQEQQGQEDEVVLVEGPTLPETPRLFPLKIRCRADLVRLPLRMSEPLQSVVDHMATHLGVSPSRILLLFGETELSPTATPRTLKLGVADIIDCVVLTSSPEATETSQQLQLRVQGKEKHQTLEVSLSRDSPLKTLMSHYEEAMGLSGRKLSFFFDGTKLSGRELPADLGMESGDLIEVWG [NFATC2IP],2.45,4.3,-0.0384,48.7 °C,51.5 °C,0.318
MNKKKKPFLGMPAPLGYVPGLGRGATGFTTRSDIGPARDANDPVDDRHAPPGKRTVGDQMKKNQAADDDDEDLNDTNYDEFNGYAGSLFSSGPYEKDDEEADAIYAALDKRMDERRKERREQREKEEIEKYRMERPKIQQQFSDLKRKLAEVTEEEWLSIPEVGDARNKRQRNPRYEKLTPVPDSFFAKHLQTGENHTSVDPRQTQFGGLNTPYPGGLNTPYPGGMTPGLMTPGTGELDMRKIGQARNTLMDMRLSQVSDSVSGQTVVDPKGYLTDLNSMIPTHGGDINDIKKARLLLKSVRETNPHHPPAWIASARLEEVTGKLQVARNLIMKGTEMCPKSEDVWLEAARLQPGDTAKAVVAQAVRHLPQSVRIYIRAAELETDIRAKKRVLRKALEHVPNSVRLWKAAVELEEPEDARIMLSRAVECCPTSVELWLALARLETYENARKVLNKARENIPTDRHIWITAAKLEEANGNTQMVEKIIDRAITSLRANGVEINREQWIQDAEECDRAGSVATCQAVMRAVIGIGIEEEDRKHTWMEDADSCVAHNALECARAIYAYALQVFPSKKSVWLRAAYFEKNHGTRESLEALLQRAVAHCPKAEVLWLMGAKSKWLAGDVPAARSILALAFQANPNSEEIWLAAVKLESENDEYERARRLLAKARSSAPTARVFMKSVKLEWVQDNIRAAQDLCEEALRHYEDFPKLWMMKGQIEEQKEMMEKAREAYNQGLKKCPHSTPLWLLLSRLEEKIGQLTRARAILEKSRLKNPKNPGLWLESVRLEYRAGLKNIANTLMAKALQECPNSGILWSEAIFLEARPQRRTKSVDALKKCEHDPHVLLAVAKLFWSQRKITKAREWFHRTVKIDSDLGDAWAFFYKFELQHGTEEQQEEVRKRCESAEPRHGELWCAVSKDIANWQKKIGDILRLVAGRIKNTF [PRPF6],1.08,5.32,0.428,46.8 °C,48.1 °C,-0.849
MTFQASHRSAWGKSRKKNWQYEGPTQKLFLKRNNVSAPDGPSDPSISVSSEQSGAQQPPALQVERIVDKRKNKKGKTEYLVRWKGYDSEDDTWEPEQHLVNCEEYIHDFNRRHTEKQKESTLTRTNRTSPNNARKQISRSTNSNFSKTSPKALVIGKDHESKNSQLFAASQKFRKNTAPSLSSRKNMDLAKSGIKILVPKSPVKSRTAVDGFQSESPEKLDPVEQGQEDTVAPEVAAEKPVGALLGPGAERARMGSRPRIHPLVPQVPGPVTAAMATGLAVNGKGTSPFMDALTANGTTNIQTSVTGVTASKRKFIDDRRDQPFDKRLRFSVRQTESAYRYRDIVVRKQDGFTHILLSTKSSENNSLNPEVMREVQSALSTAAADDSKLVLLSAVGSVFCCGLDFIYFIRRLTDDRKRESTKMAEAIRNFVNTFIQFKKPIIVAVNGPAIGLGASILPLCDVVWANEKAWFQTPYTTFGQSPDGCSTVMFPKIMGGASANEMLLSGRKLTAQEACGKGLVSQVFWPGTFTQEVMVRIKELASCNPVVLEESKALVRCNMKMELEQANERECEVLKKIWGSAQGMDSMLKYLQRKIDEF [CDYL],2.51,0.875,0.533,51.4 °C,51 °C,-0.609
MAAYSYRPGPGAGPGPAAGAALPDQSFLWNVFQRVDKDRSGVISDTELQQALSNGTWTPFNPVTVRSIISMFDRENKAGVNFSEFTGVWKYITDWQNVFRTYDRDNSGMIDKNELKQALSGFGYRLSDQFHDILIRKFDRQGRGQIAFDDFIQGCIVLQRLTDIFRRYDTDQDGWIQVSYEQYLSMVFSIV [PDCD6],2.71,2.81,0.26,49.3 °C,50.5 °C,0.15
MTAELQQDDAAGAADGHGSSCQMLLNQLREITGIQDPSFLHEALKASNGDITQAVSLLTDERVKEPSQDTVATEPSEVEGSAANKEVLAKVIDLTHDNKDDLQAAIALSLLESPKIQADGRDLNRMHEATSAETKRSKRKRCEVWGENPNPNDWRRVDGWPVGLKNVGNTCWFSAVIQSLFQLPEFRRLVLSYSLPQNVLENCRSHTEKRNIMFMQELQYLFALMMGSNRKFVDPSAALDLLKGAFRSSEEQQQDVSEFTHKLLDWLEDAFQLAVNVNSPRNKSENPMVQLFYGTFLTEGVREGKPFCNNETFGQYPLQVNGYRNLDECLEGAMVEGDVELLPSDHSVKYGQERWFTKLPPVLTFELSRFEFNQSLGQPEKIHNKLEFPQIIYMDRYMYRSKELIRNKRECIRKLKEEIKILQQKLERYVKYGSGPARFPLPDMLKYVIEFASTKPASESCPPESDTHMTLPLSSVHCSVSDQTSKESTSTESSSQDVESTFSSPEDSLPKSKPLTSSRSSMEMPSQPAPRTVTDEEINFVKTCLQRWRSEIEQDIQDLKTCIASTTQTIEQMYCDPLLRQVPYRLHAVLVHEGQANAGHYWAYIYNQPRQSWLKYNDISVTESSWEEVERDSYGGLRNVSAYCLMYINDKLPYFNAEAAPTESDQMSEVEALSVELKHYIQEDNWRFEQEVEEWEEEQSCKIPQMESSTNSSSQDYSTSQEPSVASSHGVRCLSSEHAVIVKEQTAQAIANTARAYEKSGVEAALSEVMLSPAMQGVILAIAKARQTFDRDGSEAGLIKAFHEEYSRLYQLAKETPTSHSDPRLQHVLVYFFQNEAPKRVVERTLLEQFADKNLSYDERSISIMKVAQAKLKEIGPDDMNMEEYKKWHEDYSLFRKVSVYLLTGLELYQKGKYQEALSYLVYAYQSNAALLMKGPRRGVKESVIALYRRKCLLELNAKAASLFETNDDHSVTEGINVMNELIIPCIHLIINNDISKDDLDAIEVMRNHWCSYLGQDIAENLQLCLGEFLPRLLDPSAEIIVLKEPPTIRPNSPYDLCSRFAAVMESIQGVSTVTVK [USP28],0.432,0.537,-0.0214,48 °C,49.4 °C,0.0518
MCQVGEDYGEPAPEEPPPAPRPSREQKCVKCKEAQPVVVIRAGDAFCRDCFKAFYVHKFRAMLGKNRLIFPGEKVLLAWSGGPSSSSMVWQVLEGLSQDSAKRLRFVAGVIFVDEGAACGQSLEERSKTLAEVKPILQATGFPWHVVALEEVFSLPPSVLWCSAQELVGSEGAYKAAVDSFLQQQHVLGAGGGPGPTQGEEQPPQPPLDPQNLARPPAPAQTEALSQLFCSVRTLTAKEELLQTLRTHLILHMARAHGYSKVMTGDSCTRLAIKLMTNLALGRGAFLAWDTGFSDERHGDVVVVRPMRDHTLKEVAFYNRLFSVPSVFTPAVDTKAPEKASIHRLMEAFILRLQTQFPSTVSTVYRTSEKLVKGPRDGPAAGDSGPRCLLCMCALDVDAADSATAFGAQTSSRLSQMQSPIPLTETRTPPGPCCSPGVGWAQRCGQGACRREDPQACIEEQLCYSCRVNMKDLPSLDPLPPYILAEAQLRTQRAWGLQEIRDCLIEDSDDEAGQS [CTU2],-0.721,-0.101,-0.166,53.4 °C,52.8 °C,0.28
MLKAVILIGGPQKGTRFRPLSFEVPKPLFPVAGVPMIQHHIEACAQVPGMQEILLIGFYQPDEPLTQFLEAAQQEFNLPVRYLQEFAPLGTGGGLYHFRDQILAGSPEAFFVLNADVCSDFPLSAMLEAHRRQRHPFLLLGTTANRTQSLNYGCIVENPQTHEVLHYVEKPSTFISDIINCGIYLFSPEALKPLRDVFQRNQQDGQLEDSPGLWPGAGTIRLEQDVFSALAGQGQIYVHLTDGIWSQIKSAGSALYASRLYLSRYQDTHPERLAKHTPGGPWIRGNVYIHPTAKVAPSAVLGPNVSIGKGVTVGEGVRLRESIVLHGATLQEHTCVLHSIVGWGSTVGRWARVEGTPSDPNPNDPRARMDSESLFKDGKLLPAITILGCRVRIPAEVLILNSIVLPHKELSRSFTNQIIL [GMPPA],0.0726,-3.01,-0.00526,54.4 °C,53 °C,0.0728
MVLLTMIARVADGLPLAASMQEDEQSGRDLQQYQSQAKQLFRKLNEQSPTRCTLEAGAMTFHYIIEQGVCYLVLCEAAFPKKLAFAYLEDLHSEFDEQHGKKVPTVSRPYSFIEFDTFIQKTKKLYIDSRARRNLGSINTELQDVQRIMVANIEEVLQRGEALSALDSKANNLSSLSKKYRQDAKYLNMRSTYAKLAAVAVFFIMLIVYVRFWWL [SEC22B],4.24,5.81,0.0289,51.3 °C,52.2 °C,-0.0184
MDLSGVKKKSLLGVKENNKKSSTRAPSPTKRKDRSDEKSKDRSKDKGATKESSEKDRGRDKTRKRRSASSGSSSTRSRSSSTSSSGSSTSTGSSSGSSSSSASSRSGSSSTSRSSSSSSSSGSPSPSRRRHDNRRRSRSKSKPPKRDEKERKRRSPSPKPTKVHIGRLTRNVTKDHIMEIFSTYGKIKMIDMPVERMHPHLSKGYAYVEFENPDEAEKALKHMDGGQIDGQEITATAVLAPWPRPPPRRFSPPRRMLPPPPMWRRSPPRMRRRSRSPRRRSPVRRRSRSPGRRRHRSRSSSNSSR [RNPS1],0.608,1.88,0.52,48.9 °C,50 °C,-0.501
MTTPALLPLSGRRIPPLNLGPPSFPHHRATLRLSEKFILLLILSAFITLCFGAFFFLPDSSKHKRFDLGLEDVLIPHVDAGKGAKNPGVFLIHGPDEHRHREEEERLRNKIRADHEKALEEAKEKLRKSREEIRAEIQTEKNKVVQEMKIKENKPLPPVPIPNLVGIRGGDPEDNDIREKREKIKEMMKHAWDNYRTYGWGHNELRPIARKGHSPNIFGSSQMGATIVDALDTLYIMGLHDEFLDGQRWIEDNLDFSVNSEVSVFEVNIRFIGGLLAAYYLSGEEIFKIKAVQLAEKLLPAFNTPTGIPWAMVNLKSGVGRNWGWASAGSSILAEFGTLHMEFIHLSYLTGDLTYYKKVMHIRKLLQKMDRPNGLYPNYLNPRTGRWGQYHTSVGGLGDSFYEYLLKAWLMSDKTDHEARKMYDDAIEAIEKHLIKKSRGGLTFIGEWKNGHLEKKMGHLACFAGGMFALGADGSRADKAGHYLELGAEIARTCHESYDRTALKLGPESFKFDGAVEAVAVRQAEKYYILRPEVIETYWYLWRFTHDPRYRQWGWEAALAIEKYCRVNGGFSGVKDVYSSTPTHDDVQQSFFLAETLKYLYLLFSGDDLLPLDHWVFNTEAHPLPVLHLANTTLSGNPAVR [MAN1A2],-0.726,-1.7,-0.0976,54.1 °C,54.3 °C,-0.0642
SAMD9,0.5,1.68,-0.171,47.5 °C,49.2 °C,-0.156
MALGLKCFRMVHPTFRNYLAASIRPVSEVTLKTVHERQHGHRQYMAYSAVPVRHFATKKAKAKGKGQSQTRVNINAALVEDIINLEEVNEEMKSVIEALKDNFNKTLNIRTSPGSLDKIAVVTADGKLALNQISQISMKSPQLILVNMASFPECTAAAIKAIRESGMNLNPEVEGTLIRVPIPQVTREHREMLVKLAKQNTNKAKDSLRKVRTNSMNKLKKSKDTVSEDTIRLIEKQISQMADDTVAELDRHLAVKTKELLG [MRRF],-2.43,-2.36,0.328,50.1 °C,51.3 °C,0.605
